Data from patent US20090081197A1 (PALATIN TECHNOLOGIES, published 2009).
Where two headings read alike, the source gives them in different places. Starred links: 1 amine or outer side, 2 acyl side, 3 side chain; linkers in the order of their positions; H or OH if unused. Positions of bridges follow the written chain, without caps; N, C: chain ends. Non-standard residues stand in square brackets, D forms with d. No end group written: not given here. Ser(Bzl) = O-benzyl-serine, O=C([C@H](COCc1ccccc1)N[*:1])[*:2]; dPhe(4-Cl) = N[C@H](Cc1ccc(Cl)cc1)C(=O)O; 1Nal = N[C@@H](Cc1cccc2ccccc12)C(=O)O; 2Nal = N[C@@H](Cc1ccc2ccccc2c1)C(=O)O; d2Nal = N[C@H](Cc1ccc2ccccc2c1)C(=O)O; Nle = CCCC[C@H](N)C(=O)O; Ahp = NCCCCCCC(=O)O

Experiments:
[1] = target: T1, human melanocortin 5 receptor (human, UniProt P33032 1-325); test: radioligand competition, [I125]-NDP-α-MSH, hMC5-R membranes
T1 construct: whole, on cells; also called hMC5-R; MC5-R

[2] = target: T2, human melanocortin 4 receptor (human, UniProt P32245 1-332); test: cell-based or functional assay
[3] = target: T2, human melanocortin 4 receptor; test: radioligand competition, [I125]-NDP-α-MSH, hMC4-R membranes
[4] = target: T3, MC1-R of B-16 mouse melanoma cells (mouse, UniProt Q01727 1-315); test: radioligand competition, [I125]-NDP-α-MSH, B-16 membranes
T3 construct: whole, on cells; also called B16-F10 (MC1-R)

[5] = target: T4, human melanocortin 3 receptor (human, UniProt P41968 1-323); test: radioligand competition, [I125]-NDP-α-MSH, hMC3-R membranes
T4 construct: whole, on cells; also called hMC3-R; MC3-R

[6] = target: T2, human melanocortin 4 receptor; test: cell-based or functional assay; remark: listed apart in the source
human MC1-R = target: T5, human MC1-R (human, UniProt Q01726 1-317); test: radioligand competition, NDP-α-MSH, human MC1-R, normal system
T5 construct: whole, on cells; Used in separate experiments for Ki with NDP-α-MSH; the source of the membranes is not described; also called hMC1-R

[7] = target: T4, human melanocortin 3 receptor; test: radioligand competition, [I125]-NDP-α-MSH, hMC3-R membranes; remark: listed apart in the source
[8] = target: T2, human melanocortin 4 receptor; test: radioligand competition, [I125]-NDP-α-MSH, hMC4-R membranes; remark: listed apart in the source
[9] = target: T2, human melanocortin 4 receptor; test: cell-based or functional assay; remark: listed apart in the source
[10] = target: T3, MC1-R of B-16 mouse melanoma cells; test: radioligand competition, [I125]-NDP-α-MSH, B-16 membranes; remark: listed apart in the source
[11] = target: T1, human melanocortin 5 receptor; test: radioligand competition, [I125]-NDP-α-MSH, hMC5-R membranes; remark: listed apart in the source
[12] = target: T4, human melanocortin 3 receptor; test: radioligand competition, [I125]-NDP-α-MSH, hMC3-R membranes; remark: listed apart in the source
[13] = target: T2, human melanocortin 4 receptor; test: cell-based or functional assay; remark: listed apart in the source
[14] = target: T1, human melanocortin 5 receptor; test: radioligand competition, [I125]-NDP-α-MSH, hMC5-R membranes; remark: listed apart in the source
[15] = target: T2, human melanocortin 4 receptor; test: radioligand competition, [I125]-NDP-α-MSH, hMC4-R membranes; remark: listed apart in the source
[16] = target: T3, MC1-R of B-16 mouse melanoma cells; test: radioligand competition, [I125]-NDP-α-MSH, B-16 membranes; remark: listed apart in the source
[17] = target: T3, MC1-R of B-16 mouse melanoma cells; test: as above; remark: listed apart in the source
[18] = target: T1, human melanocortin 5 receptor; test: radioligand competition, [I125]-NDP-α-MSH, hMC5-R membranes; remark: listed apart in the source
[19] = target: T4, human melanocortin 3 receptor; test: radioligand competition, [I125]-NDP-α-MSH, hMC3-R membranes; remark: listed apart in the source
[20] = target: T2, human melanocortin 4 receptor; test: radioligand competition, [I125]-NDP-α-MSH, hMC4-R membranes; remark: listed apart in the source
[21] = target: T2, human melanocortin 4 receptor; test: cell-based or functional assay; remark: listed apart in the source
[22] = target: T4, human melanocortin 3 receptor; test: radioligand competition, [I125]-NDP-α-MSH, hMC3-R membranes; remark: listed apart in the source
[23] = target: T2, human melanocortin 4 receptor; test: radioligand competition, [I125]-NDP-α-MSH, hMC4-R membranes; remark: listed apart in the source
[24] = target: T3, MC1-R of B-16 mouse melanoma cells; test: radioligand competition, [I125]-NDP-α-MSH, B-16 membranes; remark: listed apart in the source
[25] = target: T1, human melanocortin 5 receptor; test: radioligand competition, [I125]-NDP-α-MSH, hMC5-R membranes; remark: listed apart in the source
[26] = target: T2, human melanocortin 4 receptor; test: radioligand competition, [I125]-NDP-α-MSH, hMC4-R membranes; remark: listed apart in the source
[27] = target: T2, human melanocortin 4 receptor; test: cell-based or functional assay; remark: listed apart in the source
[28] = target: T4, human melanocortin 3 receptor; test: radioligand competition, [I125]-NDP-α-MSH, hMC3-R membranes; remark: listed apart in the source
[29] = target: T3, MC1-R of B-16 mouse melanoma cells; test: radioligand competition, [I125]-NDP-α-MSH, B-16 membranes; remark: listed apart in the source
[30] = target: T3, MC1-R of B-16 mouse melanoma cells; test: as above; remark: listed apart in the source
[31] = target: T1, human melanocortin 5 receptor; test: radioligand competition, [I125]-NDP-α-MSH, hMC5-R membranes; remark: listed apart in the source
[32] = target: T2, human melanocortin 4 receptor; test: radioligand competition, [I125]-NDP-α-MSH, hMC4-R membranes; remark: listed apart in the source
[33] = target: T2, human melanocortin 4 receptor; test: cell-based or functional assay; remark: listed apart in the source
[34] = target: T4, human melanocortin 3 receptor; test: radioligand competition, [I125]-NDP-α-MSH, hMC3-R membranes; remark: listed apart in the source

T4 sequence (P41968 whole entry): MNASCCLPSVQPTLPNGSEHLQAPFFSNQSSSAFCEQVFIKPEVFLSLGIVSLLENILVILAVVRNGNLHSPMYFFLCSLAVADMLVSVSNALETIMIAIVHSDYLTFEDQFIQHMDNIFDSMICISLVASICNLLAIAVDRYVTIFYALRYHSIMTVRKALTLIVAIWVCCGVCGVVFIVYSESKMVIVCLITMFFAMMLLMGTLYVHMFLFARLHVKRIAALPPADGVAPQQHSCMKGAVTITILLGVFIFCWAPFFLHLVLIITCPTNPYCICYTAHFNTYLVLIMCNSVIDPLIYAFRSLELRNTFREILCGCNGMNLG
T5 sequence (Q01726 whole entry): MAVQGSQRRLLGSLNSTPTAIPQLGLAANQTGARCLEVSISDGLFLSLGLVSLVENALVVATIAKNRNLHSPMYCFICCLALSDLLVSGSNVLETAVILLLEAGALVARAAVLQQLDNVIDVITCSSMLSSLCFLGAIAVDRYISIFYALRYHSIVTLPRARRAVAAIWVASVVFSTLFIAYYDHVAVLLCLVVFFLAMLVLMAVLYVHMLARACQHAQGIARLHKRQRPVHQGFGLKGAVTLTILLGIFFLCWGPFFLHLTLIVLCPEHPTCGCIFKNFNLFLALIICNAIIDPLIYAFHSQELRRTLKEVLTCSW
T2 sequence (P32245 whole entry): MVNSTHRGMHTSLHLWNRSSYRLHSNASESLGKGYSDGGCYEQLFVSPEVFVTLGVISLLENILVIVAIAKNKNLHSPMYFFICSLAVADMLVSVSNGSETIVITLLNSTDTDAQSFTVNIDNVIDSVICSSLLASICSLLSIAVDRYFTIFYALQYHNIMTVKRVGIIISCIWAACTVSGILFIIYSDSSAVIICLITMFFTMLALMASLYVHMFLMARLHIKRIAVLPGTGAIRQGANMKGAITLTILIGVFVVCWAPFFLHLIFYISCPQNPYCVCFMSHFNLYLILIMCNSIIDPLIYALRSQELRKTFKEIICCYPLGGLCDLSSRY
T3 sequence (Q01727 whole entry): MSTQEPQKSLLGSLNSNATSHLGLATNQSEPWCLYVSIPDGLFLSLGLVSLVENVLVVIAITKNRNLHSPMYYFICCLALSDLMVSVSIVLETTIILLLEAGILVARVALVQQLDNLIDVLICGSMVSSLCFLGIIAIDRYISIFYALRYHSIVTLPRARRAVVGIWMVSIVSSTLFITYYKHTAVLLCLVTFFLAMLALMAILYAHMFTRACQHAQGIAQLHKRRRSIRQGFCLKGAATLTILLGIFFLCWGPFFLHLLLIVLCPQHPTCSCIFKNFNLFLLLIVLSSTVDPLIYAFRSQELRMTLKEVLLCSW
T1 sequence (P33032 whole entry): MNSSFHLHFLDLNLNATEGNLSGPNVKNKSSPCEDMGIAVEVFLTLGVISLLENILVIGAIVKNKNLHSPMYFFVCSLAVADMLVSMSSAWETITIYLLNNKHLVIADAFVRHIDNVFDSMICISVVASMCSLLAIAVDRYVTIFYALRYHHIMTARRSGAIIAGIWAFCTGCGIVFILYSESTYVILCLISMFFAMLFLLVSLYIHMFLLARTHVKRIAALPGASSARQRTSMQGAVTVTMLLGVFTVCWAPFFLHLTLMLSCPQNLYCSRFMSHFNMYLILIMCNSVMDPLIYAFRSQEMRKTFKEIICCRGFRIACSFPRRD

Binder: Ac-[Nle]DW[dF]R[1Nal]K-NMe2 (lactam 2-7, also called Compound No. 36) [Ac-Nle-cyclo(-Asp-Trp-D-Phe-Arg-Nal 1-Lys)-N(CH3)2]
- Ki [1]: 31 nM
- EC50 (nM), normal system (cAMP) [2]: 272 nM
- intrinsic activity, normal system (cAMP) [2]: 0.8
- Ki [3]: 38 nM
- Ki [4]: 12 nM
- Ki [5]: 231 nM
- EC50 (nM) (cAMP), High Receptor Density System [6]: 4 nM
- Ki (human MC1-R): 39 nM

B1: Ac-Nle-cyclo(-Asp-His-D-Phe-Arg-Nal 1-Lys)-N(CH3)2 (peptide)
peptide: XDHFRXK
modifications: N-terminal acetyl; Nle at 1 (X); D-Phe at 4; Nal 1 at 6 (X); cyclo(Asp 2 to Lys 7); C-terminal dimethylamide -N(CH3)2
notes: also called Compound No. 37
- Ki [7]: 111 nM
- EC50 (nM), normal system (cAMP) [2]: 44 nM
- intrinsic activity, normal system (cAMP) [2]: 0.7
- Ki [8]: 5 nM
- EC50 (nM) (cAMP), High Receptor Density System [9]: 0.6 nM
- EC50 (nM) (cAMP), Low Receptor Density System [9]: 2.1 nM
- Ki [10]: 0.39 nM
- Ki [11]: 50 nM
- Ki (human MC1-R): 0.08 nM

B2: Ac-Nle-cyclo(-Asp-His-D-Phe-Arg-Nal 1-Lys)-NH-CH2-CH3 (peptide)
peptide: XDHFRXK
modifications: N-terminal acetyl; Nle at 1 (X); D-Phe at 4; Nal 1 at 6 (X); cyclo(Asp 2 to Lys 7); C-terminal ethylamide -NH-CH2-CH3
notes: also called Compound No. 39
- Ki [12]: 28 nM
- EC50 (nM), normal system (cAMP) [2]: 0.2 nM
- intrinsic activity, normal system (cAMP) [2]: 0.6
- EC50 (nM) (cAMP), High Receptor Density System [13]: 1.1 nM
- EC50 (nM) (cAMP), Low Receptor Density System [13]: 10 nM
- Ki [14]: 63 nM
- Ki [15]: 2 nM
- Ki [16]: 0.07 nM
- Ki (human MC1-R): 0.04 nM

Binder: Ac-DW[d2Nal]R[2Nal]K-NHMe (lactam 1-6, also called Compound No. 35) [Ac-cyclo(Asp-Trp-D-Nal 2-Arg-Nal 2-Lys)-NH-CH3]
- Ki [17]: 643 nM
- Ki [18]: 6 nM
- Ki [19]: 3 nM
- Ki [20]: 0.06 nM

B3: Ac-Nle-cyclo(-Asp-Trp-D-Phe-Arg-Nal 1-Lys)-NH-CH2-CH3 (peptide)
peptide: Ac-[Nle]DW[dF]R[1Nal]K-NHEt
modifications: lactam 2-7
SMILES: CCCC[C@H](NC(C)=O)C(=O)N[C@H]1CC(=O)NCCCC[C@@H](C(=O)NCC)NC(=O)[C@H](Cc2cccc3ccccc23)NC(=O)[C@H](CCCNC(=N)N)NC(=O)[C@@H](Cc2ccccc2)NC(=O)[C@H](Cc2c[nH]c3ccccc23)NC1=O
notes: also called Compound No. 38
- EC50 (nM) (cAMP), High Receptor Density System [21]: 10 nM
- EC50 (nM), normal system (cAMP) [2]: 120 nM
- intrinsic activity, normal system (cAMP) [2]: 0.6
- Ki [22]: 77 nM
- Ki [23]: 9 nM
- Ki [24]: 4.2 nM
- Ki [25]: 47 nM
- Ki (human MC1-R): 30 nM

Binder: Ac-DH[dF]RWK-NHEt (lactam 1-6, also called Compound No. 40) [Ac-cyclo(-Asp-His-D-Phe-Arg-Trp-Lys)-NH-CH2-CH3]
- Ki [26]: 6 nM
- EC50 (nM) (cAMP), Low Receptor Density System [27]: 3.1 nM
- EC50 (nM), normal system (cAMP) [2]: 3 nM
- intrinsic activity, normal system (cAMP) [2]: 0.6
- Ki [28]: 84 nM
- Ki [29]: 5 nM
- Ki (human MC1-R): 0.52 nM

B4: NH2-(CH2)6-C(=O)-Ser(Bzl)-(D)Phe(4-Cl)-Arg-Trp-NH2 (peptide)
peptide: [Ahp][Ser(Bzl)][dPhe(4-Cl)]RW-NH2
modifications: N-terminus assumed
SMILES: N=C(N)NCCC[C@H](NC(=O)[C@@H](Cc1ccc(Cl)cc1)NC(=O)[C@H](COCc1ccccc1)NC(=O)CCCCCCN)C(=O)N[C@@H](Cc1c[nH]c2ccccc12)C(N)=O
notes: also called Compound No. 1
- Ki [30]: 351 nM
- EC50 (nM) at MC4-R in a normal system (cAMP) [2]: 296 nM
- intrinsic activity, normal system (cAMP) [2]: 0.32
- Ki [31]: 208 nM
- Ki [32]: 3 nM
- EC50 (nM) (cAMP), High Receptor Density System [33]: 21 nM
- Ki [34]: 27 nM
